Measured values reported in US20130310310A1.

Experiments:
[1] = biological target: GLP-1 receptor
[2] = biological target: GLP-1 receptor; remark: listed apart in the source

[Cys^21(mPEG5000-MAL)] Exendin-4 (peptide)
EC50 (nM), GLP-1 receptor agonistic activity (CRE-luciferase reporter in HEK293 cells) [1]: 22.5 nM

Exendin-4 (peptide)
EC50, GLP-1 receptor agonistic activity (CRE-luciferase reporter in HEK293 cells) [2]: 1.93 nM
